A word on the stoichiometry N: it is the number of molecules, sites or subunits per partner or assembly.

The record followed here is PMC9364107.

For this assay, the target named is SF3B1 residues 147–462 (ULM-containing N-terminal region) (human) (UniProt O75533). Briefly: ITC. (In general: Isothermal titration calorimetry measures the heat released or taken up as one component is titrated into another.)
Sequence of SF3B1 residues 147–462 (ULM-containing N-terminal region) (human) (O75533 147-462): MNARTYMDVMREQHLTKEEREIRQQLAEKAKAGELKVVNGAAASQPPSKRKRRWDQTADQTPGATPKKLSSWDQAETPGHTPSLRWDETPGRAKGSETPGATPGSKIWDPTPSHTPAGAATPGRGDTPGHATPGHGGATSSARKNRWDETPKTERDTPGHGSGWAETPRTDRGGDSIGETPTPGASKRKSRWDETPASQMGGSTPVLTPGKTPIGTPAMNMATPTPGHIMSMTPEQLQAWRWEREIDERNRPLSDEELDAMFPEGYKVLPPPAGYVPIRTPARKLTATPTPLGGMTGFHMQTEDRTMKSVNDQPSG

With “U2AF2^12UL (nearly full-length U2AF2, residues 141–471) (domain or fragment)”, the stoichiometry N worked out at 2.
